Results taken from patent publication US20020111476A1 (published 2002).

Target: the molecule itself
Assay: preliminary analysis of molecular form; method not detailed

B1: Mouse cysteine rich soluble protein 2 (C2) (ligand)
chain: DETIEIIVENKVKELLANPANYPSTVTKTLSCTSVKTMNRWASCPAGMTATGCACGFACGSWEIQSGDTCNCLCLLVDWTTARCCQLS
notes: the copy number is not fixed; also called mC2; mouse C2
B1: binds.
